± gives the standard deviation of the averaged measurements.
Assays:
Experiment in all cases: protein stability index of tFT-peptide fusion (C-terminal peptide) (PSI (0-1 scale)); higher = more stable (slower turnover)
Saccharomyces cerevisiae [1] = conditions: temperature: 30 C
Method: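 MPS profiling in S. cerevisiae of the yeast C-terminome library: the last 12 aa of each annotated ORF are fused to the C-terminus of a sfGFP-mCherry timer, after a GGGS linker. Cells are FACS-sorted into 8 mCherry/sfGFP bins and deep-sequenced. PSI runs from 0 (unstable) to 1 (stable); wild type and das1Δ backgrounds, two technical replicates each.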

Saccharomyces cerevisiae [2] = conditions: genetic background: wild type; temperature: 30 C
Saccharomyces cerevisiae [3] = system: Saccharomyces cerevisiae
Method: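 MPS profiling in S. cerevisiae of the tFT-X12 degron library: putative degron peptides plus stable controls, 12 aa, fused to the C-terminus of a sfGFP-mCherry timer. Cells are FACS-sorted into 8 mCherry/sfGFP bins and deep-sequenced. PSI runs from 0 (unstable) to 1 (stable). Backgrounds are wild type, das1Δ and doa10Δ at 30 °C, and wild type, das1Δ, cdc34-1 and cdc53-1 at 37 °C; 2-3 technical replicates each.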

[4] = genetic background: das1 deletion
[5] = genetic background: cdc34-1, temperature: 37 C
[6] = genetic background: cdc53-1, temperature: 37 C
[7] = genetic background: das1 deletion, temperature: 30 C
[8] = genetic background: das1 deletion, temperature: 37 C
[9] = genetic background: doa10 deletion, temperature: 30 C
[10] = genetic background: wild type, temperature: 30 C
[11] = genetic background: wild type, temperature: 37 C

Sequence	protein stability index (Saccharomyces cerevisiae [1]; [4])	protein stability index (Saccharomyces cerevisiae [1]; genetic background: wild type)	protein stability index (Saccharomyces cerevisiae [2])	protein stability index (Saccharomyces cerevisiae [3]; [5])	protein stability index (Saccharomyces cerevisiae [3]; [6])	protein stability index (Saccharomyces cerevisiae [3]; [7])	protein stability index (Saccharomyces cerevisiae [3]; [8])	protein stability index (Saccharomyces cerevisiae [3]; [9])	protein stability index (Saccharomyces cerevisiae [3]; [10])	protein stability index (Saccharomyces cerevisiae [3]; [11])
PIDPKAFTFDSR [YCL012C C-terminal 12 aa]	0.73549 ± 0.00064	0.73 ± 0.016								
TDELWEMLLDQA [MET12 C-terminal 12 aa]	0.762 ± 0.039	0.723 ± 0.072								
SIPGITGRAQIS [ORM1 C-terminal 12 aa]	0.6983 ± 0.0014	0.6656 ± 0.0065								
ELTKQHGNKDSN [RTK1 C-terminal 12 aa]	0.7 ± 0.025	0.659 ± 0.0056								
LFYNIRCLGKQF [YAR030C C-terminal 12 aa]	0.707 ± 0.011	0.3967 ± 0.0018								
LPVSDSRCYYIL [YML031C-A C-terminal 12 aa]	0.6921 ± 0.0021	0.343 ± 0.013								
KLFESGQDSFDN [MRC1 C-terminal 12 aa]	0.7192 ± 0.0032	0.727 ± 0.022								
FQREQVAKGGLL [CHL4 C-terminal 12 aa]	0.717 ± 0.016	0.69 ± 0.057								
ESKKTKGEELTL [ARG1 C-terminal 12 aa]	0.6793 ± 0.0016	0.669 ± 0.015								
IYQPSRNRLVRY [YBR076C-A C-terminal 12 aa]	0.707 ± 0.025	0.7018 ± 0.0025								
EDGRPPQNDFKE [TIM22 C-terminal 12 aa]	0.699 ± 0.0092	0.734 ± 0.057								
MQRVSTQHEKET [PMA1 C-terminal 12 aa]	0.715 ± 0.0091	0.698 ± 0.022								
GSNELLSILHRK [DCP2 C-terminal 12 aa]	0.73 ± 0.018	0.694 ± 0.059								
FICYDRILTVYY			0.454 ± 0.034	0.479 ± 0.0097	0.564 ± 0.045	0.394 ± 0.029	0.524 ± 0.026	0.369 ± 0.043	0.368 ± 0.024	0.489 ± 0.031
FVLFSIFHFFLW			0.382 ± 0.027	0.424 ± 0.084	0.438 ± 0.039	0.362 ± 0.051	0.528 ± 0.041	0.356 ± 0.0048	0.347 ± 0.016	0.47 ± 0.0094
LHFHIYLIISPF			0.294 ± 0.012	0.117 ± 0.0026	0.137 ± 0.022	0.2 ± 0.02	0.311 ± 0.0072	0.238 ± 0.011	0.186 ± 0.034	0.261 ± 0.01
ISVSFSVIFFLL			0.154 ± 0.044	0.266 ± 0.0073	0.398 ± 0.019	0.372 ± 0.019	0.4778 ± 0.0024	0.0751 ± 0.0046	0.0951 ± 0.01	0.137 ± 0.002
VFCMVLPFVLLT			0.214 ± 0.035	0.126 ± 0.018	0.0906 ± 0.016	0.194 ± 0.024	0.2715 ± 0.0011	0.1776 ± 0.0015	0.136 ± 0.02	0.157 ± 0.016
CLLVCCCFYRNV			0.469 ± 0.0069	0.501 ± 0.043	0.558 ± 0.0066	0.409 ± 0.032	0.586 ± 0.0086	0.371 ± 0.015	0.399 ± 0.025	0.523 ± 0.0091
PYHAPRPPFSLF			0.149 ± 0.0084	0.511 ± 0.05	0.68 ± 0.0087	0.667 ± 0.021	0.7543 ± 0.0025	0.0708 ± 0.013	0.0545 ± 0.017	0.111 ± 0.04
FVVIFRFSRFSA			0.39 ± 0.0004	0.419 ± 0.12	0.477 ± 0.012	0.336 ± 0.025	0.512 ± 0.018	0.313 ± 0.0064	0.326 ± 0.0097	0.494 ± 0.037

Sequence	protein stability index (Saccharomyces cerevisiae [1]; [4])	protein stability index (Saccharomyces cerevisiae [1]; genetic background: wild type)	protein stability index (Saccharomyces cerevisiae [2])	protein stability index (Saccharomyces cerevisiae [3]; [5])	protein stability index (Saccharomyces cerevisiae [3]; [6])	protein stability index (Saccharomyces cerevisiae [3]; [7])	protein stability index (Saccharomyces cerevisiae [3]; [8])	protein stability index (Saccharomyces cerevisiae [3]; [9])	protein stability index (Saccharomyces cerevisiae [3]; [10])	protein stability index (Saccharomyces cerevisiae [3]; [11])
LFWTWVLVGVSV			0.256 ± 0.028	0.1462 ± 0.0014	0.176 ± 0.029	0.192 ± 0.022	0.283 ± 0.013	0.127 ± 0.0013	0.164 ± 0.015	0.263 ± 0.033
CVLLRPGFLVLV			0.234 ± 0.011	0.1771 ± 0.0015	0.148 ± 0.011	0.207 ± 0.021	0.278 ± 0.013	0.2144 ± 0.0018	0.166 ± 0.014	0.216 ± 0.016
WVWFGCVLGYRV			0.484 ± 0.022	0.571 ± 0.022	0.561 ± 0.025	0.426 ± 0.026	0.566 ± 0.021	0.442 ± 0.039	0.413 ± 0.027	0.531 ± 0.019
RRFKKTEIIKNN			0.247 ± 0.004	0.625 ± 0.024	0.765 ± 0.048	0.653 ± 0.022	0.7804 ± 0.0062	0.1324 ± 0.00038	0.143 ± 0.053	0.29 ± 0.048
YPRLVGGCWFRL			0.403 ± 0.047	0.318 ± 0.03	0.258 ± 0.037	0.371 ± 0.016	0.547 ± 0.032	0.644 ± 0.043	0.319 ± 0.041	0.603 ± 0.031
IKTKGRYKKQRT			0.408 ± 0.014	0.632 ± 0.051	0.709 ± 0.01	0.679 ± 0.049	0.743 ± 0.037	0.34 ± 0.018	0.376 ± 0.058	0.572 ± 0.045
FVLSLGQLVFIF			0.445 ± 0.016	0.552 ± 0.03	0.5818 ± 0.0051	0.421 ± 0.028	0.607 ± 0.018	0.381 ± 0.0082	0.397 ± 0.029	0.548 ± 0.013
VSGVLRSMVRLQ			0.453 ± 0.011	0.641 ± 0.044	0.7477 ± 0.0057	0.66 ± 0.034	0.736 ± 0.032	0.266 ± 0.017	0.324 ± 0.031	0.58 ± 0.03
VASYVCIGVVWV			0.351 ± 0.035	0.4298 ± 0.0038	0.492 ± 0.061	0.301 ± 0.023	0.497 ± 0.025	0.262 ± 0.0045	0.299 ± 0.02	0.456 ± 0.01
VYIVLLLLFLRP			0.308 ± 0.031	0.356 ± 0.0046	0.378 ± 0.013	0.317 ± 0.031	0.407 ± 0.021	0.3194 ± 0.003	0.319 ± 0.015	0.3951 ± 0.0015
VYCQRFMLLFTP			0.4872 ± 0.0007	0.527 ± 0.059	0.535 ± 0.019	0.459 ± 0.03	0.581 ± 0.021	0.553 ± 0.011	0.433 ± 0.0094	0.55 ± 0.0071
VVGFVFSCWWSW			0.5003 ± 0.0031	0.433 ± 0.031	0.4646 ± 0.00097	0.367 ± 0.039	0.506 ± 0.013	0.365 ± 0.015	0.372 ± 0.045	0.46 ± 0.014
DISWVFVLLIFF			0.382 ± 0.026	0.333 ± 0.036	0.402 ± 0.012	0.3 ± 0.033	0.485 ± 0.029	0.318 ± 0.023	0.279 ± 0.039	0.445 ± 0.011
VTLLCRFFMLVF			0.369 ± 0.021	0.454 ± 0.01	0.5149 ± 0.00071	0.402 ± 0.025	0.543 ± 0.01	0.273 ± 0.014	0.289 ± 0.014	0.428 ± 0.017
WFVFVFCSPRSS			0.5 ± 0.029	0.547 ± 0.048	0.618 ± 0.0098	0.4 ± 0.03	0.65 ± 0.027	0.394 ± 0.012	0.406 ± 0.017	0.568 ± 0.0097
GVSFLFVGVSLV			0.419 ± 0.041	0.469 ± 0.065	0.499 ± 0.01	0.34 ± 0.031	0.5503 ± 0.0019	0.3088 ± 0.00076	0.354 ± 0.015	0.523 ± 0.019
RILSLQFILCKR			0.463 ± 0.0058	0.607 ± 0.025	0.649 ± 0.015	0.538 ± 0.024	0.64 ± 0.0078	0.407 ± 0.013	0.414 ± 0.043	0.546 ± 0.019
MALAVRVVTCGA			0.375 ± 0.076	0.185 ± 0.014	0.297 ± 0.075	0.228 ± 0.036	0.363 ± 0.014	0.191 ± 0.0047	0.223 ± 0.031	0.313 ± 0.015
LGVVLFCFRFCR			0.477 ± 0.005	0.464 ± 0.0074	0.556 ± 0.028	0.391 ± 0.022	0.598 ± 0.022	0.353 ± 0.0068	0.371 ± 0.027	0.543 ± 0.019
WGVVMVCVVFGL			0.3249 ± 0.0027	0.116 ± 0.019	0.247 ± 0.016	0.186 ± 0.028	0.312 ± 0.0044	0.159 ± 0.011	0.183 ± 0.019	0.252 ± 0.027
GVVCWVVVFGGW			0.416 ± 0.035	0.307 ± 0.029	0.5008 ± 0.0019	0.281 ± 0.029	0.512 ± 0.0065	0.233 ± 0.0029	0.262 ± 0.034	0.442 ± 0.058
